Data reported in paper PMC4041212.

Key:
BRCA1 [1] = molecular target: BRCA1 (UniProt P38398); assay: reverse co-IP; conditions: reference: wild type EXO1; sites S639,T732,S815,T824
BRCA1 [2] = molecular target: BRCA1 (UniProt P38398); assay: anti-V5 co-IP, BRCA1 blot; conditions: reference: wild type V5-EXO1; sites S639,T732,S815,T824

EXO1 (from UniProt Q9UQ84) 4A-EXO1
binding against the reference (BRCA1 [1]): weaker | binding against the reference (BRCA1 [2]): weaker
